The results in this text go back to US20230174635A1.

The target in this test is BMP4/7 heterodimer (human) (UniProt P12644). Put plainly: cell-based or functional assay.
Sequence of BMP4/7 heterodimer (human) (P12644 293-408, chain 1 of 2): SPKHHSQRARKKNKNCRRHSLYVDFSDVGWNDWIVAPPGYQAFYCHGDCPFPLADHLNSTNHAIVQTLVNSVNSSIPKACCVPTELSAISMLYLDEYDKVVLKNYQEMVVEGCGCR
Sequence of BMP4/7 heterodimer (human) (P18075 293-431, chain 2 of 2, further chain): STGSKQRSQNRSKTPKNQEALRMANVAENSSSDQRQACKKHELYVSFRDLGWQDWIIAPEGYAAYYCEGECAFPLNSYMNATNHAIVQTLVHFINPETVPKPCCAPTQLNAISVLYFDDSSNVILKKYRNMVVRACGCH

On to “Gremlin 1 Full length (from UniProt O60565 25-184) (ligand)”, for which the IC50 (geometric mean, N=2), inhibition of BMP4/7 signalling, Hek-Id1 reporter gene assay came to 1.6 nM.
